This is an account of results in FireProtDB (doi:10.1111/j.1399-3011.1982.tb00898.x).

First the molecules themselves.
B1: Tryptophan synthase alpha chain, P0A877 (parent)
chain: MERYESLFAQLKERKEGAFVPFVTLGDPGIEQSLKIIDTLIEAGADALELGIPFSDPLADGPTIQNATLRAFAAGVTPAQCFEMLALIRQKHPTIPIGLLMYANLVFNKGIDEFYAQCEKVGVDSVLVADVPVEESAPFRQAALRHNVAPIFICPPNADDDLLRQIASYGRGYTYLLSRAGVTGAENRAALPLNHLVAKLKEYNAAPPLQGFGISAPDQVKAAIDAGAAGAISGSAIVKIIEQHINEPEKMLAALKVFVQPMKAATRS

This data set covers variants of B1. Particulars: Escherichia coli (strain K12), Thermal, DSC, structure 1WQ5, whole UniProt chain shown.
The mark [1] stands for this setting: pH 7, 25 °C, potassium phosphate 1 mM, reversible: yes(<50%).
Setting [2] is: pH 7, potassium phosphate 1 mM, reversible: yes(<50%).
Where [3] appears, read: pH 9.3, 25 °C, sodium tetraborate 1 mM, reversible: yes(>70%).
[4] abbreviates: pH 9.3, sodium tetraborate 1 mM, reversible: yes(>70%).

What is called Tm is the temperature at the midpoint of the melting transition. For the variant E49S, the “heat capacity change of unfolding” value came to 2.9 kcal/mol/K under setting [1], 2.9 kcal/mol/K under setting [2], 2.9 kcal/mol/K under setting [3] and 2.9 kcal/mol/K under setting [4]. The unfolding free energy was 7.7 kcal/mol under setting [1] and 7.1 kcal/mol under setting [3]. In addition, the Tm under setting [2] came out at 60.5 °C and the Tm under setting [4] was determined as 58.6 °C.

Take E49Q: under setting [1], the “heat capacity change of unfolding” value turned out to be 2.9 kcal/mol/K and the unfolding free energy turned out to be 7.4 kcal/mol. Also, under setting [3], the “heat capacity change of unfolding” value was found to be 2.9 kcal/mol/K and the unfolding free energy was 8.4 kcal/mol. For the same variant, under setting [4], the Tm came out at 62.4 °C and the “heat capacity change of unfolding” value came out at 2.9 kcal/mol/K.
